According to patent publication US20150374741A1, “METHODS FOR MAINTAINING POPULATION OF THERAPEUTIC CELLS IN TREATMENT SITE OF SUBJECT IN NEED OF CELL THERAPY” (DCB-USA LLC, priority 2013, published 2015):

Test: In vivo HA degradation tracked by Alexa Fluor 700 fluorescent signal (IVIS) in ischemic hindlimb
Design: species or system mice
Settings: streptavidin alone injected into the hindlimb
Method: Biotinylated HA was suspended in deionized water overnight, and Alexa Fluor 700-conjugated streptavidin (Invitrogen, Grand Island, N.Y., USA) was prepared according to the manufacturer's instructions. The streptavidin and biotinylated HA were then mixed and gently agitated at 4° C. This mixture was filtered through Amicon centrifugal filter units (molecular-weight cut off 100 kDa; Millipore, Billerica, Mass., USA) to exclude extra streptavidin. The final products were freeze-dried and stored at 4° C.
hMSCs were cultured on 10-cm culture dishes and maintained at 37° C. under an atmosphere of 5% CO2 in air. A total of 4×10^6 hMSCs were mixed with 200 μl of αMEM culture medium or 1% HA and then injected into the ischemic muscles of mice. Immediately and at various intervals after the injection, the mice were imaged using a Xenogen IVIS® Spectrum device and the corresponding filter sets. The fluorescent intensity was determined by calculating the number of photons within the manually drawn ROI, and the intensity was adjusted to exclude tissue autofluorescence. […]

Alexa Fluor 700 labeled streptavidin: Alexa Fluor 700-conjugated streptavidin (Invitrogen), injected alone as label control
time until fluorescence disappeared: ≤ 12 h
